Source: the DeepSol protein solubility set

Assay: soluble on expression in E. coli; label from the status in PepcDB or PDB records

MILDTDYITENGKPVIRVFKKENGEFKIEYDRTFEPYFYALLKDDSAIEDVKKVTAKRHGTVVKVKRAEKVQKKFLGRPIEVWKLYFNHPQDVPAIRDRIRAHPAVVDIYEYDIPFAKRYLIDKGLIPMEGDEELTMLAFAIATLYHEGEEFGTGPILMISYADGSEARVITWKKIDLPYVDVVSTEKEMIKRFLRVVREKDPDVLITYNGDNFDFAYLKKRCEELGIKFTLGRDGSEPKIQRMGDRFAVEVKGRIHFDLYPVIRRTINLPTYTLEAVYEAVFGKPKEKVYAEEIAQAWESGEGLERVARYSMEDAKVTYELGREFFPMEAQLSRLIGQSLWDVSRSSTGNLVEWFLLRKAYKRNELAPNKPDERELARRRGGYAGGYVKEPERGLWDNIVYLDFRSLYPSIIITHNVSPDTLNREGCKEYDVAPEVGHKFCKDFPGFIPSLLGDLLEERQKIKRKMKATVDPLEKKLLDYRQRAIKILANSFYGYYGYAKARWYCKECAESVTAWGREYIEMVIRELEEKFGFKVLYADTDGLHATIPGADAETVKKKAKEFLKYINPKLPGLLELEYEGFYVRGFFVTKKKYAVIDEEGKITTRGLEIVRRDWSEIAKETQARVLEAILKHGDVEEAVRIVKEVTEKLSKYEVPPEKLVIHEQITRDLRDYKATGPHVAVAKRLAARGVKIRPGTVISYIVLKGSGRIGDRAIPADEFDPTKHRYDAEYYIENQVLPAVERILKAFGYRKEDLRYQKTKQVGLGAWLKVKGKK
soluble on expression in E. coli: soluble

MSELDQLRQEAEQLKSQIREARKSANDTTLATVASNLEPIGRIQMRTRRTLRGHLAKIYAMHWASDSRNLVSASQDGKLIVWDSYTTNKVHAIPLRSSWVMTCAYAPSGSFVACGGLDNICSIYSLKTREGNVRVSRELPGHTGYLSCCRFLDDNQIVTSSGDMTCALWDIETGQQCTAFTGHTGDVMSLSLSPDFRTFISGACDASAKLWDIRDGMCKQTFPGHESDINAVAFFPSGNAFATGSDDATCRLFDIRADQELAMYSHDNIICGITSVAFSKSGRLLFAGYDDFNCNVWDSMRQERAGVLAGHDNRVSCLGVTEDGMAVCTGSWDSFLKIWN
soluble on expression in E. coli: soluble

MGHHHHHHSHMVPGGKPILCPRRTTAQLGPRRNPAWSLQAGRLFSTQTAEDKEEPLHSIISSTESVQGSTSKHEFQAETKKLLDIVARSLYSEKEVFIRELISNASDALEKLRHKLVSDGQALPEMEIHLQTNAEKGTITIQDTGIGMTQEELVSNLGTIARSGSKAFLDALQNQAEASSKIIGQFGVGFYSAFMVADRVEVYSRSAAPGSLGYQWLSDGSGVFEIAEASGVRTGTKIIIHLKSDCKEFSSEARVRDVVTKYSNFVSFPLYLNGRRMNTLQAIWMMDPKDVREWQHEEFYRYVAQAHDKPRYTLHYKTDAPLNIRSIFYVPDMKPSMFDVSRELGSSVALYSRKVLIQTKATDILPKWLRFIRGVVDSEDIPLNLSRELLQESALIRKLRDVLQQRLIKFFIDQSKKDAEKYAKFFEDYGLFMREGIVTATEQEVKEDIAKLLRYESSALPSGQLTSLSEYASRMRAGTRNIYYLCAPNRHLAEHSPYYEAMKKKDTEVLFCFEQFDELTLLHLREFDKKKLISVETDIVVD
soluble on expression in E. coli: soluble

MHRNYFKKKQNLIFSEKQQSVEKYGDDWVHHFHTANARETFGKKIFGIFFPRNLSIERTRETPTAKEGDLLHNGNY
soluble on expression in E. coli: not soluble

MAIHVEHVGVLERAREVSRLEDIITEDNEDIEAEMPKMRDDPAGKEARFLQATDEMSAALTQFMKKKIYEEQLANFLDGEEYVLEDQPIEKTDKVMEALKAATTHDYEVYSFAKKLFPDESDLVVVLRAILRKKQISENVRLNAEALLRKVNQETTKKFINSGINSALKAKLFGQALSLNPKLLRASYRQFLMAEDDAVDTYVEWIGSYGYQNRMLVTKFIKETLFSDINALDASCSSLEFGMFLNKLSQLLSLQSAEALFLKTLMNNPIIKKFISAEDYWIFFLISLIKFPETAEELLNNALVTLPADANYKDKTLLLKAIYSGCTNLPFSLFINNEQLLEIRECCKQAIKVTFAAELFDTQNCNKKQNKKPWKKVMFNV
soluble on expression in E. coli: not soluble

MSHHRSAFFISDRTGITAESLGHTLLTQFDALDFQRETVPFVDTVEKARALAERISEIAERDHLRPLVFTSIVNPEVREALRLNNVVLIDFFESFIGHLEIELGQKATLTVGKAHGMVNEEKYDHRIEAVNFSLNHDDGVKLKDLHEADVILVGVSRSGKTPTCLYLALQYGIRAANYPLTPEDLGSPTLPKMLLPFKDKMFGLTIDPNRLHHIRSERRPDSKYASMDNCRREVNEAESMFRHHGVPFISTTHKSIEEIASTIMHKAALGRKFLEHHHHHH
soluble on expression in E. coli: soluble
